Source: publication PMC9682730

What was measured:
[1] = target: spastin (human (endogenous in HEK293)) (UniProt Q9UBP0); assay: co-IP; reverse IP with spastin antibody from transfected cells, western blot with FLAG antibody; three independent experiments
FLAG-CHMP2B^Intron5 = FLAG-CHMP2B^Intron5 (UniProt Q9UQN3); assay: co-IP; anti-FLAG M2 affinity gel IP from lysates of transfected HEK293 cells, overnight at 4 °C, washed with 50 mM Tris-HCl pH 7.4, 150 mM NaCl, FLAG elution; western blot with spastin antibody; four independent experiments, normalised to the abundance of CHMP2B^WT versus CHMP2B^Intron5

Sequence of FLAG-CHMP2B^Intron5 (Q9UQN3 whole entry): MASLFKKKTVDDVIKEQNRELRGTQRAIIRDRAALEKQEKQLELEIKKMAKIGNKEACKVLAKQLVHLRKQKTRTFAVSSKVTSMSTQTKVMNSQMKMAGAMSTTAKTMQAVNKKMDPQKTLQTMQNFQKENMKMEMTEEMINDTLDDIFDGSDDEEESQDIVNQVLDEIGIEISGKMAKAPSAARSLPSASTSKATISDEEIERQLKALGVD

fold of CHMP2B pulled down by spastin antibody against CHMP2B^WT [1]	fold of spastin pulled down against CHMP2B^WT (FLAG-CHMP2B^Intron5)	Substance
3.3 times	–	FLAG-CHMP2B^Intron5 (from UniProt Q9UQN3 1-213) (natural protein)
–	11 times	spastin (from UniProt Q9UBP0 87-616) (natural protein)
